This note sets out measurements from paper PMC2569942.

The stoichiometry N is a count of units in the complex or per binding partner.

In this experiment the target is prophagic Cu,Zn superoxide dismutase SodC-F1 of E. coli O157:H7 (soluble recombinant mature enzyme from pO157-ΔCys) (E. coli O157:H7 EDL933). The experiment is described as follows: SEC. On the technique in general: In gel filtration, larger molecules generally elute earlier.

With “prophagic Cu,Zn superoxide dismutase SodC-F1 of E. coli O157:H7 (soluble recombinant mature enzyme from pO157-ΔCys)”, the stoichiometry N stood at 2.
